Paper PMC4432644, “Molecular mechanism for USP7-mediated DNMT1 stabilization by acetylation” (Nature Communications, 2015)
Residue numbers refer to the chain shown, from its start. Names and notes keep the numbering of the source.

How the values were obtained:
Settings in all cases: both partners purified
[1] = molecular target: T1, DNMT1^2KQ (recombinant, residues 600–1,600) (human, UniProt P26358 600-1600, K1111 to Glutamine | K1113 to Glutamine); assay: pull-down; GST–USP7 proteins incubated with DNMT1 proteins 2 h at 4 °C in 25 mM HEPES pH 7.4, 150 mM NaCl, 5% glycerol, 0.05% Triton X-100, 1 mM DTT, then held on glutathione resin; SDS–PAGE, Coomassie
T1 construct: human DNMT1, residues 600-1,600 (DNMT1 if not specified); source: E. coli Rosetta (DE3), purified
T1 sequence (P26358 other isoform, or with tags, fused parts or gaps with the stated changes): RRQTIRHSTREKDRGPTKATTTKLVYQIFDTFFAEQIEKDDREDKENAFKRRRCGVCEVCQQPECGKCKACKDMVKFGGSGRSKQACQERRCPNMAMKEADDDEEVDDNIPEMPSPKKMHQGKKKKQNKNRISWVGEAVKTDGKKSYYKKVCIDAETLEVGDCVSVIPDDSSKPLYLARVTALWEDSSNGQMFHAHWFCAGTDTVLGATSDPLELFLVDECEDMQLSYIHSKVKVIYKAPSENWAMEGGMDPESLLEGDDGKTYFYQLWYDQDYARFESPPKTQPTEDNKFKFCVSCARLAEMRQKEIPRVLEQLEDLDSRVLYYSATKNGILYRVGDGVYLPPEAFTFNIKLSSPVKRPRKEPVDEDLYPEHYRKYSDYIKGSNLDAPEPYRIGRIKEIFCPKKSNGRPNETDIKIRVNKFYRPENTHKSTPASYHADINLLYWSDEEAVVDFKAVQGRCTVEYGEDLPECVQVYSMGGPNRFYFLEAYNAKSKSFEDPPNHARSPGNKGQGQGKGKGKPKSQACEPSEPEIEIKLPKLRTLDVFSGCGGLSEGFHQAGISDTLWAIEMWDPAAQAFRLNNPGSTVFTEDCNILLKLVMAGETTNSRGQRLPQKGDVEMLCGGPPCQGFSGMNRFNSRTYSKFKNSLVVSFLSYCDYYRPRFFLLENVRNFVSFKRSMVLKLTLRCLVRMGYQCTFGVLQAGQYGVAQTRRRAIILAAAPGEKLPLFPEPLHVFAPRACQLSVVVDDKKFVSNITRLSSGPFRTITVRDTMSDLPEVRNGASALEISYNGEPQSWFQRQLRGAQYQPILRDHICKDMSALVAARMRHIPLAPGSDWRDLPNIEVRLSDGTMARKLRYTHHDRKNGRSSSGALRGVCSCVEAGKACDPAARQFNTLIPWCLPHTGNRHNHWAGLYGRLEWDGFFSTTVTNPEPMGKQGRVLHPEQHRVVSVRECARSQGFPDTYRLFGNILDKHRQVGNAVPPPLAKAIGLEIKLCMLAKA

[2] = molecular target: T2, DNMT1^2KR (recombinant, residues 600–1,600) (human, UniProt P26358 600-1600, K1111 to Arginine | K1113 to Arginine); assay: as above
T2 construct: human DNMT1, residues 600-1,600 (DNMT1 if not specified); source: E. coli Rosetta (DE3), purified
T2 sequence (P26358 other isoform, or with tags, fused parts or gaps with the stated changes): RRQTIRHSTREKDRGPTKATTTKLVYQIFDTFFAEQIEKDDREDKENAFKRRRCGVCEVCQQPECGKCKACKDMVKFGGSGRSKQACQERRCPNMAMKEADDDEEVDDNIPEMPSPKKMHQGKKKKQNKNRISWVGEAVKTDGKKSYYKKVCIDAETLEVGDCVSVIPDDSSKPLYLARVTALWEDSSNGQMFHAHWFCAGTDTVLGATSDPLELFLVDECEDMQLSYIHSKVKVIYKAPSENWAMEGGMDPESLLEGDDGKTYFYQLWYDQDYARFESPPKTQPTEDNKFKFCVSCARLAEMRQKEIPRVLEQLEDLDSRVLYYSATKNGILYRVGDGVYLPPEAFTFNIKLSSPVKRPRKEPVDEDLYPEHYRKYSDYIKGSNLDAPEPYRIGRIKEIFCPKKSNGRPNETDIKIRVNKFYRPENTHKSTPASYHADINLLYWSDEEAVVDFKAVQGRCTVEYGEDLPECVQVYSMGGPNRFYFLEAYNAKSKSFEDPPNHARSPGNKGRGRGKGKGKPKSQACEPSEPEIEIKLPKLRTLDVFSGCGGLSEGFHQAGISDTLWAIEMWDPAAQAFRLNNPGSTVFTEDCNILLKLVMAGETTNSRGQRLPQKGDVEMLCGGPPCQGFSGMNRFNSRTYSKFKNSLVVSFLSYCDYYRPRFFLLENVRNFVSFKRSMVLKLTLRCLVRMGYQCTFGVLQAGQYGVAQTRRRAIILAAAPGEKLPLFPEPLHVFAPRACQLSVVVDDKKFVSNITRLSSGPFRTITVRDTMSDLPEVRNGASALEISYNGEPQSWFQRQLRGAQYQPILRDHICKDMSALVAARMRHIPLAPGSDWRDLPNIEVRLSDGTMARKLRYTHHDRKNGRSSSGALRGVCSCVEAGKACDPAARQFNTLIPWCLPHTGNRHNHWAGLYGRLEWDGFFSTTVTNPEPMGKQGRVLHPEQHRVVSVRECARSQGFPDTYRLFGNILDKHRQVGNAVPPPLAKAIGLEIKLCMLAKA

[3] = molecular target: T3, DNMT1^4KR (recombinant, residues 600–1,600) (human, UniProt P26358 600-1600, K1111 to Arginine | K1113 to Arginine | K1115 to Arginine | K1117 to Arginine); assay: as above
T3 construct: human DNMT1, residues 600-1,600 (DNMT1 if not specified); source: E. coli Rosetta (DE3), purified
T3 sequence (P26358 other isoform, or with tags, fused parts or gaps with the stated changes): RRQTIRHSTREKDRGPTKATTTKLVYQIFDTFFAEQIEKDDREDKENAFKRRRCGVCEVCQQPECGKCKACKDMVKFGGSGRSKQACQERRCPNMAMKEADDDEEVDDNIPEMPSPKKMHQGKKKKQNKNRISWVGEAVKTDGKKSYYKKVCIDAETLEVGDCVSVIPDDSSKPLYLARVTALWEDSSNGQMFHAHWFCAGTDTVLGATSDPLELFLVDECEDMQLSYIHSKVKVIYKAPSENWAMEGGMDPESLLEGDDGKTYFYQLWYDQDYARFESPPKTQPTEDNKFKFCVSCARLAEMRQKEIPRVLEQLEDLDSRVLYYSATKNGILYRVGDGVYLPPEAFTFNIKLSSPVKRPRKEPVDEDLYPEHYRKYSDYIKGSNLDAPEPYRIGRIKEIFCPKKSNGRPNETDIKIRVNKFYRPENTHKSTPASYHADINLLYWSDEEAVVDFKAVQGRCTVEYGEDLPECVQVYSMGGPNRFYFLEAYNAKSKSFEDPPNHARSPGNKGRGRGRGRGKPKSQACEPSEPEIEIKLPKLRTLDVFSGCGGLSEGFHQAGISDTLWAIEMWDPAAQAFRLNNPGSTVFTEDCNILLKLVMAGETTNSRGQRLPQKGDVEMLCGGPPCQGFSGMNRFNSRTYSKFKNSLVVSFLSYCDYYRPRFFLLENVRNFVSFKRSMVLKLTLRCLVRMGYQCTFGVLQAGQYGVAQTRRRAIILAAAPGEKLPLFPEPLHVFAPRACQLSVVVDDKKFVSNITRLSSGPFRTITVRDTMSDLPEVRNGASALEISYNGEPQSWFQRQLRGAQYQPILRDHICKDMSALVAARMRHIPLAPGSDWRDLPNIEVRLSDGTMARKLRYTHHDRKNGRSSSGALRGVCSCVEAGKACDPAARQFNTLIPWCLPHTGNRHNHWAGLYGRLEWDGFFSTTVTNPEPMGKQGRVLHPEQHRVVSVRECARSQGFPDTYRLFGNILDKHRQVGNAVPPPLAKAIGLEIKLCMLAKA

[4] = molecular target: T4, DNMT1 (residues 600–1,600) (human, UniProt P26358 600-1600); assay: ITC; 0.05 mM DNMT1 (600–1,600) titrated with 0.5 mM USP7 (560–1,102); iTC200; 18 °C; 10 mM HEPES pH 8.0, 300 mM NaCl
T4 construct: human DNMT1, residues 600-1,600; Modified pET-28a plasmid; also called WT DNMT1 (residues 600–1,600); source: E. coli Rosetta (DE3), purified (Ni-NTA, on-column cleavage, anion exchange, SEC)
T4 sequence (P26358 600-1600): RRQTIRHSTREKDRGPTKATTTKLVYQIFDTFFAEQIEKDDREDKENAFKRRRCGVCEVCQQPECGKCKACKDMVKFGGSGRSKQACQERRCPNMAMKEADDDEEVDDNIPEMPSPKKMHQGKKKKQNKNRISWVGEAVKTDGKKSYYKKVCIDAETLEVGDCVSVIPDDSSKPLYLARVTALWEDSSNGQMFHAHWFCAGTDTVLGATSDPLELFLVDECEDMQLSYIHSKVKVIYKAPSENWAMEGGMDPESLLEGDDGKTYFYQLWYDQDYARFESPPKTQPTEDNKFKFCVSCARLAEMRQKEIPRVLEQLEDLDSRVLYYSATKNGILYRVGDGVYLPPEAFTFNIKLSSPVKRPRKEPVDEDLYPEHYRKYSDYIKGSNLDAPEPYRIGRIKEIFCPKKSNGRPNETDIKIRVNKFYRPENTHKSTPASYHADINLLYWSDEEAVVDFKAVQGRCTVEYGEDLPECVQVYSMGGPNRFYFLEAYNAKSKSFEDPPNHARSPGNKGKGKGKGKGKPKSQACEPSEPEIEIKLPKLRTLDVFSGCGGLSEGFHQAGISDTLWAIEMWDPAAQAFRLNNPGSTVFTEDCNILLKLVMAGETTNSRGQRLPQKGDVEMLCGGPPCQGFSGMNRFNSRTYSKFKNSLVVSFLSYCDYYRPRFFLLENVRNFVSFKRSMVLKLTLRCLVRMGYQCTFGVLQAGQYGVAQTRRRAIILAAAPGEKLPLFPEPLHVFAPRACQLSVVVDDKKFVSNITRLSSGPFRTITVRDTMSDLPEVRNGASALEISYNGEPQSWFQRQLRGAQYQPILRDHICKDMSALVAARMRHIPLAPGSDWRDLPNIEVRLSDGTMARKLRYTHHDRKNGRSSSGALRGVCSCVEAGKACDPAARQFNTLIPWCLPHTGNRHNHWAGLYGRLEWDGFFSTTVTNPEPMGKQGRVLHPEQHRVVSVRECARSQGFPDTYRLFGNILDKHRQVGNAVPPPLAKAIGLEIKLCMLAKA

[5] = molecular target: T4, DNMT1 (residues 600–1,600); assay: pull-down; GST–USP7 proteins incubated with DNMT1 proteins 2 h at 4 °C in 25 mM HEPES pH 7.4, 150 mM NaCl, 5% glycerol, 0.05% Triton X-100, 1 mM DTT, then held on glutathione resin; SDS–PAGE, Coomassie

B1: GST–TUD^USP7 (tandem UBL domains of USP7, residues 560–1,102) (domain or fragment, human, UniProt Q93009 560-1102, looked up)
chain: EAHLYMQVQIVAEDQFCGHQGNDMYDEEKVKYTVFKVLKNSSLAEFVQSLSQTMGFPQDQIRLWPMQARSNGTKRPAMLDNEADGNKTMIELSDNENPWTIFLETVDPELAASGATLPKFDKDHDVMLFLKMYDPKTRSLNYCGHIYTPISCKIRDLLPVMCDRAGFIQDTSLILYEEVKPNLTERIQDYDVSLDKALDELMDGDIIVFQKDDPENDNSELPTAKEYFRDLYHRVDVIFCDKTIPNDPGFVVTLSNRMNYFQVAKTVAQRLNTDPMLLQFFKSQGYRDGPGNPLRHNYEGTLRDLLQFFKPRQPKKLYYQQLKMKITDFENRRSFKCIWLNSQFREEEITLYPDKHGCVRDLLEECKKAVELGEKASGKLRLLEIVSYKIIGVHQEDELLECLSPATSRTFRIEEIPLDQVDIDKENEMLVTVAHFHKEVFGTFGIPFLLRIHQGEHFREVMKRIQSLLDIQEKEFEKFKFAIVMMGRHQYINEDEYEVNLKDFEPQPGNMSHPRPWLGLDHFNKAPKRSRYTYLEKAIKIHN
notes: Modified pGEX-6P-1 plasmid; also called GST–USP7 (truncation); wild-type GST–TUD^USP7; source: E. coli BL21(DE3), purified
[1]
  binding result: binds
[2]
  binding result: binds
[3]
  binding result: binds

B2: USP7 (residues 560–1,102), tag removed (domain or fragment, human, UniProt Q93009 560-1102, looked up)
chain: B1 chain
notes: The methods name a modified pGEX-6P-1 plasmid but a Ni-NTA purification with on-column cleavage; also called TUD^USP7; source: E. coli BL21(DE3), purified (Ni-NTA, on-column cleavage, anion exchange, SEC)
[4]
  Kd: 600 nM

B3: GST–TUD^USP7 D762A (domain or fragment, human, UniProt Q93009 560-1102, looked up)
chain: B1 chain with D203A
notes: also called D762A^USP7; source: E. coli BL21(DE3), purified
[5]
  binding result: binds

B4: GST–TUD^USP7 E744A (domain or fragment, human, UniProt Q93009 560-1102, looked up)
chain: B1 chain with E185A
notes: also called E744A^USP7; source: E. coli BL21(DE3), purified
[5]
  binding result: binds
